How the values were obtained:
Conditions in all cases: reference: WT HSP90α, after IR; sites T5,T7
[1] = molecular target: glucocorticoid receptor (GR) (UniProt P06537); assay: anti-GR IP, anti-Flag blot
[2] = molecular target: endothelial nitric oxide synthase (eNOS) (UniProt P70313); assay: co-immunoprecipitation
androgen receptor (AR) = androgen receptor (AR) (UniProt P19091); assay: co-immunoprecipitation
liver kinase B1 (LKB1) = liver kinase B1 (LKB1) (UniProt Q9WTK7); assay: anti-LKB1 IP, anti-Flag blot

binding against the reference [1]: stronger
binding against the reference [2]: stronger
binding against the reference (androgen receptor (AR)): stronger
binding against the reference (liver kinase B1 (LKB1)): stronger
Substance: HSP90α (from UniProt P07901) T5,7A HSP90α, after IR

Source: PMC5485859
